Test results reported in patent US20240336661A1, “PEPTIDES DERIVED FROM RUMINOCOCCUS TORQUES” (University of Copenhagen, priority 2021, published 2024).

Key:
[1] = target: αV/β5 integrin receptor complex (Homo sapiens, UniProt P06756+P18084); assay: Co-immunoprecipitation on a nickel ion column; format: binding; conditions: 100 nM Fc-fused RUCILP2, 5 nM His-tag αV/β5 integrin
Method: FIG. 6. Co-immunoprecipitation on a nickel ion column to validate binding of recombinant RUCILP2 to the αV/β5 integrin receptor complex. 100 nM Fc-fused RUCILP2 was incubated with 5 nM of His-tag αV/β5 integrin receptor, followed by immunoprecipitation using nickel-nitrilotriacetic acid (Ni-NTA) agarose. Precipitated integrins and co-precipitated irisin were analyzed by immuno-blot analysis. Elution indicates a mixture of disassociated integrin and RUCILP2 from the integrin-RUCILP2 complex. Before loading, samples were a mixture of co-incubation of RUCILP2 and integrin receptor.
• Step 1: Binding of integrin and RUCILP2. One hundred nM FC-tagged RUCILP2 was incubated with 5 nM of the indicated his-tag integrin avb5 in a final volume of 500ul in 1.5 ml Protein LoBind Tubes (Eppendorf, 022431081) for 5/30/90 minutes at room temperature under rotation. • Step 2: After rotation, Ni spin column (ThermoFisher Scientific, R901-01) was applied to immunoprecipitate integrins. In details, Add 500 μl of FC-RUCILP2-integrin-His protein complex to the column. Mix end-over-end at 4° C. for 15 minutes. […] Precipitated integrin was detected by immuno-blot analysis against his tag. Co-precipitated RUCILP2 was detected by immunoblot analysis against FC-tag. […]

inguinal fat = assay: Daily intraperitoneal injection of RUCILP2 into chow-fed mice, gene expression in inguinal fat; format: in vivo, mouse; conditions: 1 mg/kg i.p. daily, 7 days, normal chow
Method: FIG. 17. […] No effects on expression of marker genes for lipolysis. Recombinant RUCILP2 was daily injected intraperitoneal at a concentration of 1 mg/kg into 9-week-old wild type C57BL/6N mice for one week. The mRNA levels of indicated genes were analyzed by qRT-PCR. Data were expressed as mean±SEM, *, p<0.05; **, p<0.01; ***, p<0.001, when compared with phosphate-buffered saline (PBS) group, n=9 animals/group.
Mice (20 male wild type C57BL/6N, 8 weeks of age, Janvier) were single-housed at 23±1° C. on a 12-hour light/12-hour dark cycle with access to food and water ad libitum. After 7 days of acclimatization on a standard chow diet (Altromin 1328 diet contains 11% of fat, 24% of protein, and 65% of carbohydrates. This diet is a cereal-based (soy, wheat, corn) fixed formula which is free of alfalfa and fish/animal meal and deficient in nitrosamines) to avoid stress, the mice received daily intraperitoneal injection of 1 mg/kg recombinant RUCILP2, and saline, respectively, for 7 days. All animals were then sacrificed, and subcutaneous fat pads and liver tissue were collected. The mRNA levels of thermogenic genes including Ucp1, Elovl3, Cidea, and Prdm16 as well as lipogenic genes including Acaca and Fasn in inguinal fat were analyzed by qRT-PCR as described below.
RNA extraction and real-time PCR analysis: Total RNA was extracted from tissues using Trizol reagent (Invitrogen) according to the manufacturer's instructions, followed by concentration measurement. 1 μg RNA was transcribed to cDNA using the Reverse Transcription System (Promega). Real-time PCR was performed using the LC480 detection system (Roche Diagnostics) and SYBR Green I Supermix (Takara). Samples were run in duplicate in a single 384-well reaction plate. Data were normalized to the housekeeping Rp136, TBP or GAPDH genes and analyzed according to ΔΔCT method.

Chain of αV/β5 integrin receptor complex (P06756 31-992 limits assumed): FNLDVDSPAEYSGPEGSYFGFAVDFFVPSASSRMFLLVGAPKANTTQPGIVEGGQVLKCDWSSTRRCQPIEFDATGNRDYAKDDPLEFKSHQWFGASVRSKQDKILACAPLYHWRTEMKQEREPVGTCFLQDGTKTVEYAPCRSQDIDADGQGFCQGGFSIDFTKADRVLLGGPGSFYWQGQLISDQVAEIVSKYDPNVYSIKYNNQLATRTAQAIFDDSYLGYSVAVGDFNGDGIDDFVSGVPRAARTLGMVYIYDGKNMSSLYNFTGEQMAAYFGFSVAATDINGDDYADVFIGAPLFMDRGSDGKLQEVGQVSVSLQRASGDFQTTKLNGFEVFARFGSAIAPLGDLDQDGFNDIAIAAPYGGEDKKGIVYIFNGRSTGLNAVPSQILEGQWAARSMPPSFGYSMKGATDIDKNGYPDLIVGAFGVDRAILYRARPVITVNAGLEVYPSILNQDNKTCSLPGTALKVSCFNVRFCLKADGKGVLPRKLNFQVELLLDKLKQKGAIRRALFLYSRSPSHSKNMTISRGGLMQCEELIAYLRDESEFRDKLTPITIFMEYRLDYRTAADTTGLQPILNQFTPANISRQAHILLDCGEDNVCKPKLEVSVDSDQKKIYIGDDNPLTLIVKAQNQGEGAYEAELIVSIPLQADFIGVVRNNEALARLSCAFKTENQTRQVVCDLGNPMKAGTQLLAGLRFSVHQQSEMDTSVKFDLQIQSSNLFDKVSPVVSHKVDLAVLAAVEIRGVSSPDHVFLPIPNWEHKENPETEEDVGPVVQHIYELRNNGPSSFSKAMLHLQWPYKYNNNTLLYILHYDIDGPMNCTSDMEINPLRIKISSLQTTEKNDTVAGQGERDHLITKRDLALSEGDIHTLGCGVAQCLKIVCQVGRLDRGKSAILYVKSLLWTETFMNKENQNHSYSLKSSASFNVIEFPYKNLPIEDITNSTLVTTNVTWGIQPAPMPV
Chain of αV/β5 integrin receptor complex (P18084 24-719 limits assumed): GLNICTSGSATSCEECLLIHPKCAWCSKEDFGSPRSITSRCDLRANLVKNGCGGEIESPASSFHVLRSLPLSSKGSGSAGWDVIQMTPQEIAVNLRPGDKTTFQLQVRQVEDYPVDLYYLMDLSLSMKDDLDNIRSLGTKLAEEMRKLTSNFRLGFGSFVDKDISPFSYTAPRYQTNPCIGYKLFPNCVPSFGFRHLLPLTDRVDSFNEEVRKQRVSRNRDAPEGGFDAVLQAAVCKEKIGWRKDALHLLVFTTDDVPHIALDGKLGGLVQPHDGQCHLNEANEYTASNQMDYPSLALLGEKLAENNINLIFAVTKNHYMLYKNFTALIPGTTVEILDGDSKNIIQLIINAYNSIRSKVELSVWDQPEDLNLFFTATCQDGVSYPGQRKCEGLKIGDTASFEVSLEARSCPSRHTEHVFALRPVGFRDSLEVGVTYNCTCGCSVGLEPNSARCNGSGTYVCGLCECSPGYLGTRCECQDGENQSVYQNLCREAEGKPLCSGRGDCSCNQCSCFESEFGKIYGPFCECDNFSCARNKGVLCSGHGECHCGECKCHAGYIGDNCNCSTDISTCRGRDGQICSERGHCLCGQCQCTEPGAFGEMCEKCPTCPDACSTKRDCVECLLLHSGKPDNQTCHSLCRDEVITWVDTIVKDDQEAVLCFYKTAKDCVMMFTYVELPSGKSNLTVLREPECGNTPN

B1: RUCILP2: 87 amino acid irisin-like polypeptide cleaved from the Ruminococcus torques FNDC5-like protein RUMTOR_00181; recombinant, 6-His-tagged from E. coli (protein)
chain: APVDVKVSEITETSAKASWKNAADGKEAAGYNVYVDGVKLNKELLTEASCGLTNLKAETTYFVEVTAVDAAGNESVKSEKVTFKTLK
modifications: 6-His tag; Ruminococcus torques
notes: 87 amino acid irisin-like polypeptide cleaved from the Ruminococcus torques FNDC5-like protein RUMTOR_00181; recombinant, 6-His-tagged from E. coli
binding to αV/β5 integrin receptor (co-immunoprecipitation) [1]: direct interaction | expression of a gene involved in lipogenesis (inguinal fat): reduces expression | expression of genes involved in thermogenesis (inguinal fat): induces expression | expression of marker genes for lipolysis (inguinal fat): No effects
